{"source": "patent US12006519B2", "about": "“Polymerase mutants and use with 3′-OH unblocked reversible terminators” (Agilent Technologies, Inc., priority 2021, dated 2024)", "molecules": {"B1": {"name": "Pfu2: Pfu DNA polymerase with D141A/E143A/A486L/Y546H (protein, UniProt P61875 1-775, looked up, variant D141A E143A A486L Y546H)", "DNA polymerase": "MILDVDYITEEGKPVIRLFKKENGKFKIEHDRTFRPYIYALLRDDSKIEEVKKITGERHGKIVRIVDVEKVEKKFLGKPITVWKLYLEHPQDVPTIREKVREHPAVVDIFEYDIPFAKRYLIDKGLIPMEGEEELKILAFAIATLYHEGEEFGKGPIIMISYADENEAKVITWKNIDLPYVEVVSSEREMIKRFLRIIREKDPDIIVTYNGDSFDFPYLAKRAEKLGIKLTIGRDGSEPKMQRIGDMTAVEVKGRIHFDLYHVITRTINLPTYTLEAVYEAIFGKPKEKVYADEIAKAWESGENLERVAKYSMEDAKATYELGKEFLPMEIQLSRLVGQPLWDVSRSSTGNLVEWFLLRKAYERNEVAPNKPSEEEYQRRLRESYTGGFVKEPEKGLWENIVYLDFRALYPSIIITHNVSPDTLNLEGCKNYDIAPQVGHKFCKDIPGFIPSLLGHLLEERQKIKTKMKETQDPIEKILLDYRQKLIKLLANSFYGYYGYAKARWYCKECAESVTAWGRKYIELVWKELEEKFGFKVLYIDTDGLHATIPGGESEEIKKKALEFVKYINSKLPGLLELEYEGFYKRGFFVTKKRYAVIDEEGKVITRGLEIVRRDWSEIAKETQARVLETILKHGDVEEAVRIVKEVIQKLANYEIPPEKLAIYEQITRPLHEYKAIGPHVAVAKKLAAKGVKIKPGMVIGYIVLRGDGPISNRAILAEEYDPKKHKYDAEYYIENQVLPAVLRILEGFGYRKEDLRYQKTRQVGLTSWLNIKKS"}, "B2": {"name": "Pfu10: Pfu D141A/E143A/K477W/A486L/Y546H, SEQ ID NO:2 (protein)", "chain": "B1 DNA polymerase with K477W", "modifications": "Mutant of Pyrococcus furiosus Polymerase"}}, "assay_type_in_all_cases": "biochemical", "key": {"Lightning Terminators [1]": {"test_system": "Lightning Terminators", "experiment": "Plate-based assay, incorporation of Lightning Terminators by control extracts", "conditions": "for Utilization of Lightning Terminators (in words): control extracts, FIG. 6, FIGS. 7A-7B", "description": "(§1) In this example, additional mutant polymerases were derived from Pfu polymerase. To generate the mutants, eighty-seven codons in the Pfu pol B gene were saturated using the QuikChange Lightning Mutagenesis kit and oligonucleotides containing “NDT” codons to create R, N, D, C, G, H, I, L, F, S, Y, and V substitutions with equal frequency. In some cases, mutants missing from NDT libraries were prepared in a separate QuikChange reaction with an equimolar mixture of mutagenic oligos encoding the remaining mutations (A, T, K, Q, E, P, […], W). Thirty-two clones were randomly selected from each QuikChange library (with the exception of T267, Y403, Y410, I475, G499 and K675 libraries which generated fewer transformants). Bacterial lysates were prepared and screened for incorporation of LTA and LTC using a plate-based assay with immobilized primer-templates. A limited number of mutants were also screened for utilization of LTG and LTU (similar trends; data not shown). After washing and UV cleavage (to minimize dye quenching effects), plates were read and fluorescent signals compared to Pfu controls. The following table identifies four mutant Pfu polymerases that served as controls, which were given the arbitrary names Pfu5, Pfu1, and Pfu2, along with Pfu10 (which is discussed above).\nSelected lysates, based on screening results, were submitted for sequencing, and an amino acid identification was made based on the selections. […] As shown in Example 3, K477W benefits sequencing by increasing the fraction of full-length reads."}, "LTC": {"test_system": "LTC", "experiment": "Plate-based assay with immobilized primer-templates, incorporation of LTC", "conditions": "FIG. 6", "description": "as §1"}, "Lightning Terminators [2]": {"test_system": "Lightning Terminators", "experiment": "Sequencing-by-synthesis with Lightning Terminators (87 cycles)", "design": "ARL (87 cycles) / Lead + Lag / Leading / Lagging: unit not given here", "description": "(§2) This section generally describes how the present mutant polymerases were used for sequencing-by-synthesis, and how their performance in sequencing was measured. Sequencing was performed on a breadboard instrument, essentially as described in Hertzog D, et al., “A high-performance, low-cost approach to next-generation sequencing”, BioOptics World. 2011 Issue November/December 2011.\nIn this example, mutations were introduced into the DNA polymerase of SEQ ID NO: 12 (Therminator) in an attempt to improve its capability in sequencing with 3′-OH unblocked terminators. Such mutations to Thermococcus sp. 9° N DNA polymerase are disclosed in U.S. Pat. Nos. 9,273,352; 9,677,059; 9,765,309; U.S. Pat. App. Publication No. 20160032377. The following table summarizes sequencing metrics with Lightning Terminators.\nAs used in this example and those that follow, “Lead+Lag” refers to dephasing errors in Sequencing by Synthesis technology caused by either reading the next base signal (Lead) or reading the previous base signal (Lag) relative to current base signals. Such errors may arise because of imperfect incoporation of reversible terminators by the polymerase.\nIn this example, mutant polymerases were created by introducing certain mutations (D141A/E143A/A485L) which are present in Therminator. The three mutations were introduced at the equivalent positions in JDF3 (Thermococcus sp. JDF3) and Pfu (Pyrococcus furisosus) DNA polymerases. The new mutant polymerases were then evaluated for their performance in sequencing with Lightning Terminators, as described above."}, "Human DNA library": {"test_system": "Human DNA library", "experiment": "Sequencing with Lightning Terminators, Human DNA library (120 cycles)", "conditions": "Human DNA library", "description": "as §2\n(§3) In this example, a variety of mutations were introduced into Pfu10 by multi-site mutagenesis or into Pfu A486L/Y546H by domain substitutions to explore an acceptable degree of reduced identity and identify other mutant Pfu polymerases containing L486, F494, H546, and W477. […] Pfu10 and Pfu10-N12 were evaluated for performance in sequencing with Lightning Terminators, as described above."}, "E. coli DNA library": {"test_system": "E. coli DNA library", "experiment": "Sequencing with Lightning Terminators, E. coli DNA library (120 cycles)", "description": "as §2, §3"}, "dATP": {"test_system": "dATP", "experiment": "Template-independent DNA synthesis assay with dATP (terminal transferase activity)", "description": "The template-independent DNA synthesis reactions employed 7.5 U TdT (Promega) or 180 nM (3×over primer) Pfu26 (D141A/E143A/A486L/Y546H/K477W/L409Y) or Pfu48 (D141A/E143A/A486R/Y546H/K477W/L409Y). Varying concentrations of dATP were added to 2 μM (TdT) or 60 nM (Pfu) T7 FOR primer (6′Fam […]) (SEQ ID NO:6) in duplicate reactions containing 1×TdT buffer with CoCl2(Promega) or 1×ThermoPol buffer (NEB). Reactions were incubated for 30 min. at 37° C. (TdT) or 60° C. (Pfu), and then inactivated with heat (TdT; 10 min. at 70° C.) or EDTA (1 ul 500 uM EDTA). Reaction products were exposed to UV using a Stratalinker (15-watt bulbs, […], 10 min). Reactions were diluted in water (TdT, 1:333; Pfu, 1:10) and 1 μl (TdT) or 0.5 μl (Pfu) aliquots were brought up to 10 μl with HiDI/LIZ 120 Size Standard. Products were heated at 95° C. for 5 min., cooled on ice for 2 min., and then analyzed on an ABI 3500 capillary electrophoresis system ([…] capillary, filter set #5, assay=GE5 LIZ120).\nTerminal transferase activity was measured by the number of template-independent dATP additions. Results are shown for TdT in FIG. 9A, for Pfu26 in FIG. 9B and for Pfu48 in FIG. 9C."}, "[3]": {"conditions": "alternative polymerases (D141A/E143A), same protein concentrations (0.02 ug/uL in cycle 1 and 0.002 ug/uL in cycles 2-n)"}}, "note": "Positions count from the first letter of the chain named. In names and notes the source's numbering stands."}
{"molecule": "B1", "values": [{"measurement": "Utilization of Lightning Terminators (in words)", "setting": "Lightning Terminators [1]", "result": "could utilize Lightning Terminators"}, {"measurement": "Incorporation of LTC (in words)", "setting": "LTC", "result": "maximize incorporation of LTC"}, {"measurement": "Sequencing performance with Lightning Terminators (in words)", "setting": "Lightning Terminators [2]", "result": "nearly identical to Therminator"}, {"measurement": "% reads >85", "setting": "Lightning Terminators [2]; [3]", "result": 49.7, "unit": "%"}, {"measurement": "ARL (87 cycles)", "setting": "Lightning Terminators [2]; [3]", "result": 75.3}, {"measurement": "Lead + Lag", "setting": "Lightning Terminators [2]; [3]", "result": 1.3}]}
{"molecule": "B2", "values": [{"measurement": "Effect on LTA and LTU incorporation (in words)", "setting": "Lightning Terminators [1]; K477W, or final fluorescence due to tryptophan quenching", "result": "negative impact on LTA and LTU incorporation"}, {"measurement": "Utilization of Lightning Terminators (in words)", "setting": "Lightning Terminators [1]", "result": "could utilize Lightning Terminators"}, {"measurement": "Incorporation of LTC (in words)", "setting": "LTC", "result": "maximize incorporation of LTC"}, {"measurement": "% reads >85", "setting": "Human DNA library", "result": 92.0, "unit": "%"}, {"measurement": "ARL (120 cycles)", "setting": "Human DNA library", "result": 109.7}, {"measurement": "FracQ30", "setting": "Human DNA library", "result": 0.65}, {"measurement": "Lead + Lag", "setting": "Human DNA library", "result": 1.1}, {"measurement": "% reads >85", "setting": "E. coli DNA library", "result": 79.9, "unit": "%"}, {"measurement": "ARL (120 cycles)", "setting": "E. coli DNA library", "result": 92.3}, {"measurement": "FracQ30", "setting": "E. coli DNA library", "result": 0.63}, {"measurement": "Lead + Lag", "setting": "E. coli DNA library", "result": 0.8}, {"measurement": "Sequencing performance with Lightning Terminators (in words)", "setting": "Lightning Terminators [2]", "result": "improved sequencing enzyme"}, {"measurement": "% reads >85 bp", "setting": "Lightning Terminators [2]; Example 3", "result": 69.5, "unit": "%"}, {"measurement": "FracQ30", "setting": "Lightning Terminators [2]; Example 3", "result": 0.62}, {"measurement": "Lagging", "setting": "Lightning Terminators [2]; Example 3", "result": 0.66}, {"measurement": "Leading", "setting": "Lightning Terminators [2]; Example 3", "result": 0.24}, {"measurement": "ARL (87 cycles)", "setting": "Lightning Terminators [2]; Example 3, Therminator 110 runs, Pfu10 12 runs", "result": 80.4}, {"measurement": "Non-templated dA-addition (terminal transferase activity)", "setting": "dATP", "result": "fail to perform non-templated dA-addition"}]}
